pIC50: −log10 of the molar value.
Legend:
IL-7Rα = IL-7Rα (Homo sapiens, UniProt P16871); assay: Competition binding ELISA with bn407::NA-HRP precomplex; conditions: bn407:NA-HRP 10 nM final; read-out: Competitive Binding ELISA bn407:NA-HRP (10 nMf) IC50 M
Rγc subunit = molecular target: T1, Rγc subunit (Homo sapiens, UniProt P31785); assay: Phage competitive binding assay characterizing the Rγc ligand binding site; conditions: for Competition with Phage Clone SEQ ID NO: 198 (Family 1A) for binding to the Rγc subunit: phage clone 198, immobilized Rγc ECD; for Competition with Phage Clone SEQ ID NO: 224 (Family 1B) for binding to the Rγc subunit: phage clone 224, immobilized Rγc ECD; for Competition with Phage Clone SEQ ID NO: 236 (Family 2) for binding to the Rγc subunit: phage clone 236, immobilized Rγc ECD; for Competition with Phage Clone SEQ ID NO: 248 (Family 3) for binding to the Rγc subunit: phage clone 248, immobilized Rγc ECD; for Competition with Phage Clone SEQ ID NO: 266 (Family 4) for binding to the Rγc subunit: phage clone 266, immobilized Rγc ECD; for Competition with Phage Clone SEQ ID NO: 930 (Family 5) for binding to the Rγc subunit: phage clone 930, immobilized Rγc ECD
T1 construct: purchased ACRObiosystems, Inc. ILG-H5256
T1 sequence (P31785 23-254): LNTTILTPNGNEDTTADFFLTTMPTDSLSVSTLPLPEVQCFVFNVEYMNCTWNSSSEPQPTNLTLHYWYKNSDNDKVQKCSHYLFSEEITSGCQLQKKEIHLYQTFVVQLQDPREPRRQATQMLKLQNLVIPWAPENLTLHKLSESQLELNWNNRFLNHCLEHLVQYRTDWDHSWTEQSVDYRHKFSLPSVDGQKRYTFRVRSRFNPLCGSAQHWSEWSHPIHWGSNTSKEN

IL-7Rα subunit = IL-7Rα subunit (Homo sapiens, UniProt P16871); assay: Phage competitive binding assay characterizing the IL-7Rα ligand binding site
Sequence of IL-7Rα subunit (P16871 21-236): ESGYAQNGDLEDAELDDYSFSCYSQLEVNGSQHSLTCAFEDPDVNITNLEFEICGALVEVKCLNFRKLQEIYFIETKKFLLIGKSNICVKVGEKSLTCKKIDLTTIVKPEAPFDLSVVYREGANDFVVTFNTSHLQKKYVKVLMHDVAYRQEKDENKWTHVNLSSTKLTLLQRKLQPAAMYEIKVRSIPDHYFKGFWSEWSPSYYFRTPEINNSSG

Sequence of IL-7Rα (P16871 21-236): as above

Compound	pIC50 (IL-7Rα)	Competition with Phage Clone SEQ ID NO: 930 (Family 5) for binding to the Rγc subunit (Rγc subunit)	Competition with Phage Clone SEQ ID NO: 198 (Family 1A) for binding to the Rγc subunit (Rγc subunit)	Competition with Phage Clone SEQ ID NO: 224 (Family 1B) for binding to the Rγc subunit (Rγc subunit)	Competition with Phage Clone SEQ ID NO: 236 (Family 2) for binding to the Rγc subunit (Rγc subunit)	Competition with Phage Clone SEQ ID NO: 248 (Family 3) for binding to the Rγc subunit (Rγc subunit)	Competition with Phage Clone SEQ ID NO: 266 (Family 4) for binding to the Rγc subunit (Rγc subunit)	also measured
CC[C@H](C)[C@H](N)C(=O)N1CCC[C@H]1C(=O)N[C@@H](Cc1c[nH]c2ccccc12)C(=O)N[C@H]1CSSC[C@@H](C(=O)N[C@@H](C)C(=O)N[C@@H](Cc2c[nH]c3ccccc23)C(=O)N[C@@H](CC(C)C)C(=O)N[C@@H](CCCNC(=N)N)C(=O)N[C@@H](CCC(N)=O)C(=O)N[C@@H](CCSC)C(=O)NCC(=O)NCC(=O)O)NC(=O)[C@H](CCC(N)=O)NC(=O)[C@H](CC(C)C)NC(=O)CNC(=O)CNC(=O)[C@@H]2CCCN2C(=O)[C@H](CC(=O)O)NC(=O)[C@H](CC(C)C)NC(=O)[C@H]([C@@H](C)O)NC1=O [SEQ ID NO: 420, I P W C T L D P G G L Q C A W L R Q M]	6.15							
CC[C@H](C)[C@H](N)C(=O)N1CCC[C@H]1C(=O)N[C@@H](Cc1c[nH]c2ccccc12)C(=O)N[C@H]1CSSC[C@@H](C(=O)N[C@@H](C)C(=O)N[C@@H](C)C(=O)N[C@@H](CC(C)C)C(=O)N[C@@H](CCCNC(=N)N)C(=O)N[C@@H](CCC(N)=O)C(=O)N[C@@H](CCSC)C(=O)NCC(=O)NCC(=O)O)NC(=O)[C@H](CCC(N)=O)NC(=O)[C@H](CC(C)C)NC(=O)CNC(=O)CNC(=O)[C@@H]2CCCN2C(=O)[C@H](CC(=O)O)NC(=O)[C@H](CC(C)C)NC(=O)[C@H]([C@@H](C)O)NC1=O [SEQ ID NO: 421, I P W C T L D P G G L Q C A A L R Q M]	5.12							
CC[C@H](C)[C@H](N)C(=O)N1CCC[C@H]1C(=O)N[C@@H](Cc1c[nH]c2ccccc12)C(=O)N[C@H]1CSSC[C@@H](C(=O)N[C@@H](C)C(=O)N[C@@H](Cc2ccccc2)C(=O)N[C@@H](CC(C)C)C(=O)N[C@@H](CCCNC(=N)N)C(=O)N[C@@H](CCC(N)=O)C(=O)N[C@@H](CCSC)C(=O)NCC(=O)NCC(=O)O)NC(=O)[C@H](CCC(N)=O)NC(=O)[C@H](CC(C)C)NC(=O)CNC(=O)CNC(=O)[C@@H]2CCCN2C(=O)[C@H](CC(=O)O)NC(=O)[C@H](CC(C)C)NC(=O)[C@H]([C@@H](C)O)NC1=O [SEQ ID NO: 422, I P W C T L D P G G L Q C A F L R Q M]	6.04							
D C S M W E J G V E L C W [SEQ ID NO: 224]		−	+ (Rγc ligand competes with phage binding.)	+ (Rγc ligand competes with phage binding.)	+ (Rγc ligand competes with phage binding.)	+ (Rγc ligand competes with phage binding.)	+ (Rγc ligand competes with phage binding.)	
M C W L E W G E W V G S C L [SEQ ID NO: 236]		−	+ (Rγc ligand competes with phage binding.)	+ (Rγc ligand competes with phage binding.)	+ (Rγc ligand competes with phage binding.)	+ (Rγc ligand competes with phage binding.)	+ (Rγc ligand competes with phage binding.)	
R T C T E W E N V V L C W V [SEQ ID NO: 202]		−	+^1 (Rγc ligand competes with phage binding.)	+ (Rγc ligand competes with phage binding.)	+ (Rγc ligand competes with phage binding.)	+ (Rγc ligand competes with phage binding.)	+ (Rγc ligand competes with phage binding.)	
S L L K C Y N A S T C A S V F [SEQ ID NO: 930]		+ (Rγc ligand competes with phage binding.)	−^2	−	−	−	−	
V V C Q D W E G V E L C W Q [SEQ ID NO: 965]								Competition with Phage Clone SEQ ID NO: 5 (Family 1) for binding to the IL-7Rα subunit (IL-7Rα subunit; phage clone 5, immobilized IL-7Rα ECD): 0; Competition with Phage Clone SEQ ID NO: 43 (Family 3A) for binding to the IL-7Rα subunit (IL-7Rα subunit; phage clone 43, immobilized IL-7Rα ECD): 0; Competition with Phage Clone SEQ ID NO: 104 (Family 3B) for binding to the IL-7Rα subunit (IL-7Rα subunit; phage clone 104, immobilized IL-7Rα ECD): 0; Competition with Phage Clone SEQ ID NO: 313 (Family 2) for binding to the IL-7Rα subunit (IL-7Rα subunit; phage clone 313, immobilized IL-7Rα ECD): 0; Competition with Phage Clone SEQ ID NO: 965 (N/A) for binding to the IL-7Rα subunit (IL-7Rα subunit; phage clone 965, immobilized IL-7Rα ECD): 0
Y D C R I A Q V G E L C D L [SEQ ID NO: 58, IL-2Rβ Ligand, reference compound]		−	−	−	−	−	−	Competition for binding to the binding site with the group of Rγc ligands (Rγc subunit): does not compete

The next lines start with results.

pIC50 (IL-7Rα)	Competition with Phage Clone SEQ ID NO: 930 (Family 5) for binding to the Rγc subunit (Rγc subunit)	Compound	Competition with Phage Clone SEQ ID NO: 198 (Family 1A) for binding to the Rγc subunit (Rγc subunit)	Competition with Phage Clone SEQ ID NO: 224 (Family 1B) for binding to the Rγc subunit (Rγc subunit)	Competition with Phage Clone SEQ ID NO: 236 (Family 2) for binding to the Rγc subunit (Rγc subunit)	Competition with Phage Clone SEQ ID NO: 248 (Family 3) for binding to the Rγc subunit (Rγc subunit)	Competition with Phage Clone SEQ ID NO: 266 (Family 4) for binding to the Rγc subunit (Rγc subunit)	also measured
6.18		CC[C@H](C)[C@H](N)C(=O)N1CCC[C@H]1C(=O)N[C@@H](Cc1c[nH]c2ccccc12)C(=O)N[C@H]1CSSC[C@@H](C(=O)N[C@@H](C)C(=O)N[C@@H](Cc2ccc(O)cc2)C(=O)N[C@@H](CC(C)C)C(=O)N[C@@H](CCCNC(=N)N)C(=O)N[C@@H](CCC(N)=O)C(=O)N[C@@H](CCSC)C(=O)NCC(=O)NCC(=O)O)NC(=O)[C@H](CCC(N)=O)NC(=O)[C@H](CC(C)C)NC(=O)CNC(=O)CNC(=O)[C@@H]2CCCN2C(=O)[C@H](CC(=O)O)NC(=O)[C@H](CC(C)C)NC(=O)[C@H]([C@@H](C)O)NC1=O [SEQ ID NO: 423, I P W C T L D P G G L Q C A Y L R Q M]						
5.82		CC[C@H](C)[C@H](N)C(=O)N1CCC[C@H]1C(=O)N[C@@H](Cc1c[nH]c2ccccc12)C(=O)N[C@H]1CSSC[C@@H](C(=O)N[C@@H](C)C(=O)N[C@@H](Cc2c[nH]cn2)C(=O)N[C@@H](CC(C)C)C(=O)N[C@@H](CCCNC(=N)N)C(=O)N[C@@H](CCC(N)=O)C(=O)N[C@@H](CCSC)C(=O)NCC(=O)NCC(=O)O)NC(=O)[C@H](CCC(N)=O)NC(=O)[C@H](CC(C)C)NC(=O)CNC(=O)CNC(=O)[C@@H]2CCCN2C(=O)[C@H](CC(=O)O)NC(=O)[C@H](CC(C)C)NC(=O)[C@H]([C@@H](C)O)NC1=O [SEQ ID NO: 424, I P W C T L D P G G L Q C A H L R Q M]						
5.73		CC[C@H](C)[C@H](N)C(=O)N1CCC[C@H]1C(=O)N[C@@H](Cc1c[nH]c2ccccc12)C(=O)N[C@H]1CSSC[C@@H](C(=O)N[C@@H](C)C(=O)N[C@@H](Cc2c[nH]c3ccccc23)C(=O)N[C@@H](C)C(=O)N[C@@H](CCCNC(=N)N)C(=O)N[C@@H](CCC(N)=O)C(=O)N[C@@H](CCSC)C(=O)NCC(=O)NCC(=O)O)NC(=O)[C@H](CCC(N)=O)NC(=O)[C@H](CC(C)C)NC(=O)CNC(=O)CNC(=O)[C@@H]2CCCN2C(=O)[C@H](CC(=O)O)NC(=O)[C@H](CC(C)C)NC(=O)[C@H]([C@@H](C)O)NC1=O [SEQ ID NO: 425, I P W C T L D P G G L Q C A W A R Q M]						
6.42		CC[C@H](C)[C@H](N)C(=O)N1CCC[C@H]1C(=O)N[C@@H](Cc1c[nH]c2ccccc12)C(=O)N[C@H]1CSSC[C@@H](C(=O)N[C@@H](C)C(=O)N[C@@H](Cc2c[nH]c3ccccc23)C(=O)N[C@H](C(=O)N[C@@H](CCCNC(=N)N)C(=O)N[C@@H](CCC(N)=O)C(=O)N[C@@H](CCSC)C(=O)NCC(=O)NCC(=O)O)[C@@H](C)CC)NC(=O)[C@H](CCC(N)=O)NC(=O)[C@H](CC(C)C)NC(=O)CNC(=O)CNC(=O)[C@@H]2CCCN2C(=O)[C@H](CC(=O)O)NC(=O)[C@H](CC(C)C)NC(=O)[C@H]([C@@H](C)O)NC1=O [SEQ ID NO: 426, I P W C T L D P G G L Q C A W I R Q M]						
6.39		CC[C@H](C)[C@H](N)C(=O)N1CCC[C@H]1C(=O)N[C@@H](Cc1c[nH]c2ccccc12)C(=O)N[C@H]1CSSC[C@@H](C(=O)N[C@@H](C)C(=O)N[C@@H](Cc2c[nH]c3ccccc23)C(=O)N[C@H](C(=O)N[C@@H](CCCNC(=N)N)C(=O)N[C@@H](CCC(N)=O)C(=O)N[C@@H](CCSC)C(=O)NCC(=O)NCC(=O)O)C(C)C)NC(=O)[C@H](CCC(N)=O)NC(=O)[C@H](CC(C)C)NC(=O)CNC(=O)CNC(=O)[C@@H]2CCCN2C(=O)[C@H](CC(=O)O)NC(=O)[C@H](CC(C)C)NC(=O)[C@H]([C@@H](C)O)NC1=O [SEQ ID NO: 427, I P W C T L D P G G L Q C A W V R Q M]						
6.31		CC[C@H](C)[C@H](N)C(=O)N1CCC[C@H]1C(=O)N[C@@H](Cc1c[nH]c2ccccc12)C(=O)N[C@H]1CSSC[C@@H](C(=O)N[C@@H](C)C(=O)N[C@@H](Cc2c[nH]c3ccccc23)C(=O)N[C@@H](CC(C)C)C(=O)N[C@@H](C)C(=O)N[C@@H](CCC(N)=O)C(=O)N[C@@H](CCSC)C(=O)NCC(=O)NCC(=O)O)NC(=O)[C@H](CCC(N)=O)NC(=O)[C@H](CC(C)C)NC(=O)CNC(=O)CNC(=O)[C@@H]2CCCN2C(=O)[C@H](CC(=O)O)NC(=O)[C@H](CC(C)C)NC(=O)[C@H]([C@@H](C)O)NC1=O [SEQ ID NO: 428, I P W C T L D P G G L Q C A W L A Q M]						

Source: patent US11746139B2, “IL-7Rαγc binding compounds” (MEDIKINE, INC., priority 2020, dated 2023)
